This note sets out measurements from publication PMC3484126.

Where two headings read alike, the source gives them in different places.

In data set [1] the target is T1, KLF4 full-length (UniProt O43474-1 1-479). The note with it: protein: recombinant; tags: N-terminal 6xHis-lipoyl-TEV tag, cleaved; label: 5' fluorescein.
Data set [2] deals with T1, KLF4 full-length. The following applies: protein: recombinant; tags: N-terminal 6xHis-lipoyl-TEV tag, cleaved; label: 5' fluorescein. The source holds these as a separate data set.
Data set [3] deals with T1, KLF4 full-length. The following applies: protein: recombinant; tags: N-terminal 6xHis-lipoyl-TEV tag, cleaved; label: 5' Alexa488.

T1 sequence (O43474 other isoform, or with tags, fused parts or gaps): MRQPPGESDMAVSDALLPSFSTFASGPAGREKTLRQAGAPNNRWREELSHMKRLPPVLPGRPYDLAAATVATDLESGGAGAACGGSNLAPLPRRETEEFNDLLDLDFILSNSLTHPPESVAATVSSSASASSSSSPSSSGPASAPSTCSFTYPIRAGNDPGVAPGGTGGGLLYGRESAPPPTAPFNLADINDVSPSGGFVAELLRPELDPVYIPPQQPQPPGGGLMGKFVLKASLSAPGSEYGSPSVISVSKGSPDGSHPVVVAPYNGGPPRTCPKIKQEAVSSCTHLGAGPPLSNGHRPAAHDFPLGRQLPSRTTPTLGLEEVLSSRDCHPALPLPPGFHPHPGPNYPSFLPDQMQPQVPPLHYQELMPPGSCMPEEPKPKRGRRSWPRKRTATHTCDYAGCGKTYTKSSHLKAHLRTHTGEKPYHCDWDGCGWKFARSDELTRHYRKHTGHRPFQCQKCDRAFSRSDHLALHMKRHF

B1: *K-1 (dsDNA)
DNA 1: AGGGTGTGGCCCGC
DNA 2: GCGGGCCACACCCT
For the molecule B1, the binding result in the data set with KLF4 full-length [1] was “binds”.

B2: *K-2 (dsDNA)
DNA 1: GGGCCACCCCGCC
DNA 2: GGCGGGGTGGCCC
With B2, in the data set with KLF4 full-length [2], the binding signal was determined as 100 fold weaker than *K-1.

B3: *P (dsDNA)
DNA 1: GGACATGTCCGGACATGTCC
DNA 2: GGACATGTCCGGACATGTCC
Take B3: the binding result with KLF4 full-length [3] is recorded as “no binding”.
